Residue numbers refer to the chain shown, from its start.

The chains are these.
B1: Ab5 (antibody, V domains shown)
VH: EVQLVESGGGLVQPGGSLRLSCAASGFTFSSFSMDWVRQAPGKGLEWVSYISPDASTIYYADSVKGRFTISRDNAKNSLYLQMNSLRAEDTAVYYCARGVLDYGDMLDPWGQGTLVTVSS
VL: DIQMTQSPSSLSASVGDRVTITCQASQDITNYLNWYQQKPGKAPKLLIYDASNLETGVPSRFSGSGSGTDFTFTISSLQPEDIATYYCQQADNHPPWTFGGGTKVEIK
B2: Ab21 (antibody, V domains shown)
VH: B1 VH
VL: B1 VL
B3: Ab25 (antibody, V domains shown)
VH: B1 VH with S30G
VL: B1 VL
B4: Ab23 (antibody, V domains shown)
VH: B1 VH with D35N, D54S, S56D, S78T
VL: B1 VL
B5: Ab1 (antibody, V domains shown)
VH: EVQLLESGGGLVQPGGSLRLSCAASGFTFRNYAMSWVRQAPGKGLEWVSSISGSGGATYYADSVKGRFTISRDNSKNTLYLQMNSLRAEDTAVYYCARVSSGHWDFDYWGQGTLVTVSS
VL: DIQLTQSPSSLSASVGDRVTITCQASQDISNFLNWYQQKPGKAPKLLIYDASNLETGVPSRFSGSGSGTDFTFTISSLQPEDIATYYCQQVFNPPLTFGGGTKVEIK
B6: Ab28 (antibody, V domains shown)
VH: B1 VH with A97V
VL: B1 VL
B7: Ab27 (antibody, V domains shown)
VH: B1 VH with S31F, F32Y, S33A, D35N
VL: B1 VL
B8: Ab16 (antibody, V domains shown)
VH: B5 VH with R30S, S50A, G56F, A57T
VL: DIQLTQSPSSLSASVGDRVTITCRASQSISSYLNWYQQKPGKAPKLLIYAASNLQSGVPSRFSGSGSGTDFTLTISSLQPEDFATYYCQQTYTVPLTFGGGTKVEIK
B9: Ab36 (antibody, V domains shown)
VH: B5 VH with F106L
VL: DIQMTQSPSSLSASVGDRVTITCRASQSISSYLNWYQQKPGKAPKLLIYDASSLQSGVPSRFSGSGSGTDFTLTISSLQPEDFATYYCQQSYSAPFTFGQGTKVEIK
B10: Ab9 (antibody, V domains shown)
VH: B5 VH with E1Q, L5V, L11V, R30S, N31S, Y32F, S35T, S50A, G56A, Y60F
VL: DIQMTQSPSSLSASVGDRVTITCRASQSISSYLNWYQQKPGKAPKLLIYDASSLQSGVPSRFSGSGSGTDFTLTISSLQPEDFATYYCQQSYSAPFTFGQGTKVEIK
B11: Ab8 (antibody, V domains shown)
VH: B5 VH with E1Q, L5V, L11V, G16R, R30S, N31D, S35V, S50A, G56F, A57T
VL: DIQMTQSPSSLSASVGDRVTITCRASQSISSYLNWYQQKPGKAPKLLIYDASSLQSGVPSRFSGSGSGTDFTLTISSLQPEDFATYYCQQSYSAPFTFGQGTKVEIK
B12: Ab13 (antibody, V domains shown)
VH: B5 VH with R30A, N31D, S35T, S50A, G53S, S54F, G55A, G56S, T58I
VL: B8 VL with L4M, N53S, T91V, T93D, V94P
B13: Ab7 (antibody, V domains shown)
VH: B5 VH with R30A, N31D, S35T, S50A, S54T, G56A, A57H
VL: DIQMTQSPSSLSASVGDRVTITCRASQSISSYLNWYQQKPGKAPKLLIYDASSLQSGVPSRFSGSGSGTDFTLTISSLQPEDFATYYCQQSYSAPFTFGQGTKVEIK
B14: Ab10 (antibody, V domains shown)
VH: B5 VH
VL: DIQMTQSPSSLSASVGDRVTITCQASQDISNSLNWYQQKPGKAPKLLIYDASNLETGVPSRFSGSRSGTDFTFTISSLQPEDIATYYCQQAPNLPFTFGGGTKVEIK
B15: Ab17 (antibody, V domains shown)
VH: B5 VH with L11V, R30S, N31S, Y32F, S35T, S50A, G56A, Y60F
VL: B8 VL
B16: Ab14 (antibody, V domains shown)
VH: B5 VH with R30S, N31A, S35T, S50A, S54T, A57S
VL: B8 VL with L4M, N53S, T91V, T93D, V94P
B17: Ab18 (antibody, V domains shown)
VH: QVQLVESGGGVVQPGRSLRLSCAASGFTFSDYAMVWVRQAPGKGLEWVSAISGSGAATYFADSVKGRFTISRDNSKNTLYLQMNSLRAEDTAVYYCATVSSGHWDFDYWGQGTLVTVSS
VL: B8 VL
B18: Ab15 (antibody, V domains shown)
VH: B17 VH with Q1E, A56F, A57T, F60Y, T98R
VL: B8 VL

Chain of hGARP-proTGFβ1 complex on cells (Q14392 20-662 limits assumed, chain 1 of 2): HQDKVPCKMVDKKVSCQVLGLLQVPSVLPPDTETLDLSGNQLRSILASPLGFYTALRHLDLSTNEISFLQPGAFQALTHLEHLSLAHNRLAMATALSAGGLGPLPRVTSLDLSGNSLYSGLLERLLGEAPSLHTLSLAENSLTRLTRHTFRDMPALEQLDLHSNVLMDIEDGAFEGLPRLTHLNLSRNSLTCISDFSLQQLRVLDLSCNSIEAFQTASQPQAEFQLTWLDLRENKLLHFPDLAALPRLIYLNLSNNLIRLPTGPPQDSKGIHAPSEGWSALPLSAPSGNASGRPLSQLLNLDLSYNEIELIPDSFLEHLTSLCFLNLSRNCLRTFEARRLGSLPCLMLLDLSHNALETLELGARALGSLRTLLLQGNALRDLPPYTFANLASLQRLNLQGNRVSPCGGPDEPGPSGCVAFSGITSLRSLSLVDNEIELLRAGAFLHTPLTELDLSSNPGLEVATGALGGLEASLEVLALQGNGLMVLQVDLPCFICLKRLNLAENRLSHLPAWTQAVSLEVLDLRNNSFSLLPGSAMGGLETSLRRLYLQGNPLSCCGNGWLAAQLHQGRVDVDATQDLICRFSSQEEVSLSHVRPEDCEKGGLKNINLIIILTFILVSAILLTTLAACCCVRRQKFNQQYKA
Chain of hGARP-proTGFβ1 complex on cells (P01137 30-390 limits assumed, chain 2 of 2): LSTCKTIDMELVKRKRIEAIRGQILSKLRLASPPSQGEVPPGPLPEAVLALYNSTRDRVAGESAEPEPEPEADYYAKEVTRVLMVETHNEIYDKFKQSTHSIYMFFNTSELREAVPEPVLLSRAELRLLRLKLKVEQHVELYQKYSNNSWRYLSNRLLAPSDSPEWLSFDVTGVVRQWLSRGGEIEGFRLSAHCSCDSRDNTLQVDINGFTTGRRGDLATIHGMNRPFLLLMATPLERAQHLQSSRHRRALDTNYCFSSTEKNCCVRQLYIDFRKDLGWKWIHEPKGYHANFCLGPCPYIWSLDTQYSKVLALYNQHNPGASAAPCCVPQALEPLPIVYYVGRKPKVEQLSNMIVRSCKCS
T3 sequence (Q86YC3 other isoform, or with tags, fused parts or gaps limits assumed, chain 1 of 2): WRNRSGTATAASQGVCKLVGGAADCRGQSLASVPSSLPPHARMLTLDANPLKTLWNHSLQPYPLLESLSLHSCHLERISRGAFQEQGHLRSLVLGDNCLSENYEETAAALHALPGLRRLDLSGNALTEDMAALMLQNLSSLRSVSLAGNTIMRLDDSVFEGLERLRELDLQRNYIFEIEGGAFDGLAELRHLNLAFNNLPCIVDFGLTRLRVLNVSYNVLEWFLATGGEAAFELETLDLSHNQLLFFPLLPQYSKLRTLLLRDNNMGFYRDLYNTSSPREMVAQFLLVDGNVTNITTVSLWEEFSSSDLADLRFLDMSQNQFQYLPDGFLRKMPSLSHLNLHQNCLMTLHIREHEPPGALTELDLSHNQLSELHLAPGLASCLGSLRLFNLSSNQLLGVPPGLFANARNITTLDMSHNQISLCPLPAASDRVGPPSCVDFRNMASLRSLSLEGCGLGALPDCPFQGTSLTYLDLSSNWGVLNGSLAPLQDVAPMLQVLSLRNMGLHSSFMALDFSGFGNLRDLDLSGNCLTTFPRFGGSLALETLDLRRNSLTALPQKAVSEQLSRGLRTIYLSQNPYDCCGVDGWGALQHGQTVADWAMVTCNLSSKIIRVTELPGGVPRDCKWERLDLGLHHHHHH
T3 sequence (P01137 30-390 limits assumed, chain 2 of 2): as the sequence (P01137 30-390 limits assumed, chain 2 of 2) above
Chain of hLRRC33-proTGFβ1 complex on cells (Q86YC3 19-692 limits assumed, chain 1 of 2): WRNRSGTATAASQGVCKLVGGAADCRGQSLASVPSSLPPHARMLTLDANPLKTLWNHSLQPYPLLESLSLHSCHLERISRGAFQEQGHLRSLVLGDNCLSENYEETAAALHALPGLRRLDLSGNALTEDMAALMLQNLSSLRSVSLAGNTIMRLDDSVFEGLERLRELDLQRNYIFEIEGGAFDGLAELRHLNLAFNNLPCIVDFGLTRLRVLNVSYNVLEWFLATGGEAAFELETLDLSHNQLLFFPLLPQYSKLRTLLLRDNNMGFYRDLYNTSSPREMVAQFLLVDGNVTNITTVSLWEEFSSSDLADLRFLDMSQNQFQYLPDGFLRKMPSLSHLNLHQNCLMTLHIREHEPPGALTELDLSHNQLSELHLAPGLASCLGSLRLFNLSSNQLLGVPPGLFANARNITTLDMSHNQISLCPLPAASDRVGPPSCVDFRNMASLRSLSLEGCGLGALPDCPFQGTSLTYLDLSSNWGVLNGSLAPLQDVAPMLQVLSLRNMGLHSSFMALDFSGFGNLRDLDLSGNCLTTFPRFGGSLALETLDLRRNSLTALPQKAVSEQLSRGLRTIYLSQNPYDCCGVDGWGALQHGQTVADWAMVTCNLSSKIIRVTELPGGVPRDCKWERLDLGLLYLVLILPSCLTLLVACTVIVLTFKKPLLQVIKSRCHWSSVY
Chain of hLRRC33-proTGFβ1 complex on cells (P01137 30-390 limits assumed, chain 2 of 2): as the sequence (P01137 30-390 limits assumed, chain 2 of 2) above

The first assay concerns the target hLRRC33-proTGFβ1 complex on cells (human, UniProt Q86YC3 19-692; P01137 30-390). Nature of the assay: cell-based or functional assay.
For B1, the “IC50, reporter cell assay of TGFβ1 activation” value (from here on “IC50, reporter cell assay”) was 0.616 nM.

For the molecule B2, the “IC50, reporter cell assay” value was determined as 0.596 nM.

Turning to B3, the “IC50, reporter cell assay” value was found to be 0.653 nM.

For the molecule B4, the “IC50, reporter cell assay” value was 0.579 nM.

As to B5, the “IC50, reporter cell assay” value was found to be 5.37 nM.

The next assay concerns the target hGARP-proTGFβ1 complex on cells (human, UniProt Q14392 20-662; P01137 30-390). The assay is described as follows: cell-based or functional assay.
For B1, the “IC50, reporter cell assay” value was 0.14 nM.

On to B2, for which the “IC50, reporter cell assay” value came to 0.401 nM.

Regarding B3, the “IC50, reporter cell assay” value came to 0.442 nM.

For the molecule B4, the “IC50, reporter cell assay” value amounted to 0.264 nM.

For the molecule B5, the “IC50, reporter cell assay” value is 3.71 nM.

A further assay concerns the target hLTBP1-proTGFβ1 complex made by transfected cells (cell-based potency assay) (human, UniProt Q14766 347-1721; P01137 30-390). The assay is described as follows: cell-based or functional assay.
As to B1, the “IC50, reporter cell assay” value amounted to 1.29 nM.

Regarding B2, the “IC50, reporter cell assay” value worked out at 1.61 nM.

With B3, the “IC50, reporter cell assay” value turned out to be 6.08 nM.

Consider B4, for which the “IC50, reporter cell assay” value came out at 0.835 nM.

Take B5: the “IC50, reporter cell assay” value was 14.5 nM.

The next assay concerns the target hLTBP3-proTGFβ1 complex made by transfected cells (cell-based potency assay) (human, UniProt Q9NS15 44-1303; P01137 30-390). Nature of the assay: cell-based or functional assay.
Regarding B1, the “IC50, reporter cell assay” value stood at 1 nM.

For B2, the “IC50, reporter cell assay” value stood at 0.765 nM.

With B3, the “IC50, reporter cell assay” value was 0.538 nM.

For the molecule B4, the “IC50, reporter cell assay” value is 0.879 nM.

B5: the “IC50, reporter cell assay” value is 2.71 nM.

The target of the next assay is T1, human LTBP3-proTGFβ1 complex (human, UniProt Q9NS15 866-1039).
T1 construct: range 866-1039; also called hLTBP3-proTGFβ1; hLTBP3
T1 sequence (Q9NS15 866-1039 limits assumed, chain 1 of 2): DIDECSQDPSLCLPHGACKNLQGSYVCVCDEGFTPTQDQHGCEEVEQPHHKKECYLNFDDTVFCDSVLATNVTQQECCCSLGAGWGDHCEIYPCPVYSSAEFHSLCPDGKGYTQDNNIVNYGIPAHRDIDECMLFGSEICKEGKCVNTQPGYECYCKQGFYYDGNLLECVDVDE
T1 sequence (chain, as listed by the source limits assumed, chain 2 of 2): as the sequence (P01137 30-390 limits assumed, chain 2 of 2) above
Nature of the assay: BLI (Octet). A general note: Biolayer interferometry detects binding as a change in optical thickness at a sensor tip.
One may read the Kd as the concentration at which binding is half-saturated. The low end stands for a tighter complex, the high end for a looser complex. Molecule B2 gave a Kd of 0.268 nM.

Consider B3, for which binding was put at a Kd of 0.152 nM.

For the molecule B6, the Kd was 0.316 nM.

The molecule B4 gave a Kd of 0.468 nM.

B7: binding was put at a Kd of 0.238 nM.

In turn, B8 returned a Kd of 0.132 nM.

For the molecule B9, binding was put at a Kd of 0.415 nM.

In turn, B10 gave a Kd of 0.284 nM.

Take B11: the Kd is 0.302 nM.

As to B12, the Kd amounted to 0.249 nM.

B13 showed a Kd of 0.417 nM.

Turning to B14, the affinity, expressed as Kd, was 0.319 nM.

Consider B15, for which the Kd worked out at 0.208 nM.

Regarding B16, the Kd is 0.346 nM.

Take B17: the Kd worked out at 0.257 nM.

Turning to B18, the Kd was determined as 0.168 nM.

A further assay deals with T2, human GARP-proTGFβ1 complex (human, UniProt Q14392 20-627; P01137 30-390).
T2 construct: also called hGARP-proTGFβ1; hGARP
The assay is described as follows: BLI (Octet).
With B2, the affinity, expressed as Kd, was 0.833 nM.

In the case of B3, the affinity, expressed as Kd, was 0.488 nM.

In the case of B6, the Kd was 0.797 nM.

As for B4, binding was put at a Kd of 1.34 nM.

Take B7: the Kd amounted to 0.424 nM.

The molecule B8 registered a Kd of 4.16 nM.

For B9, binding was put at a Kd of 12.8 nM.

In turn, B10 came in with a Kd of 15.5 nM.

In turn, B11 showed a Kd of 15.4 nM.

As to B12, binding was characterised by a dissociation constant (Kd) of 10 nM.

In turn, B13 had a Kd of 18 nM.

As for B14, binding was characterised by a dissociation constant (Kd) of 10.2 nM.

For the molecule B15, the affinity, expressed as Kd, was 8.62 nM.

The molecule B16 showed a Kd of 10.5 nM.

The molecule B17 returned a Kd of 11.5 nM.

B18: the affinity, expressed as Kd, was 7.01 nM.

The next assay addresses T3, human LRRC33-proTGFβ1 complex (human, UniProt Q86YC3 19-650; P01137 30-390).
T3 construct: also called hLRRC33-proTGFβ1; hLRRC33
Nature of the assay: BLI (Octet).
As to B2, the Kd stood at 0.455 nM.

Molecule B3 yielded a Kd of 0.409 nM.

B6 displayed a Kd of 0.409 nM.

The molecule B4 returned a Kd of 0.455 nM.

As to B7, binding was put at a Kd of 0.299 nM.

As for B8, binding was characterised by a dissociation constant (Kd) of 0.631 nM.

Consider B9, for which the Kd stood at 1.42 nM.

Take B10: the Kd was determined as 1.3 nM.

The molecule B11 yielded a Kd of 10 nM.

B12 yielded a Kd of 1.4 nM.

B13 yielded a Kd of 10.3 nM.

In the case of B14, the Kd turned out to be 1.06 nM.

B15 showed a Kd of 0.658 nM.

As to B16, the affinity, expressed as Kd, was 1.34 nM.

As to B17, binding was characterised by a dissociation constant (Kd) of 1.02 nM.

B18 yielded a Kd of 0.702 nM.

For the next assay, the target named is T4, human LTBP1-proTGFβ1 complex (human, UniProt Q14766 873-1507).
T4 construct: range 873-1507; biotinylated in Octet and MSD-SET; also called hLTBP1-proTGFβ1; hLTBP1
Nature of the assay: BLI (Octet).
B2 had a Kd of 0.225 nM.

B3: binding was put at a Kd of 0.217 nM.

In the case of B6, the Kd amounted to 0.34 nM.

For the molecule B4, the Kd is 0.417 nM.

In turn, B7 registered a Kd of 0.178 nM.

In turn, B8 had a Kd of 0.181 nM.

B9 came in with a Kd of 0.353 nM.

Molecule B10 registered a Kd of 0.348 nM.

In the case of B11, binding was put at a Kd of 0.329 nM.

B12: the Kd was found to be 0.276 nM.

On to B13, for which the Kd was 0.487 nM.

B14 came in with a Kd of 0.262 nM.

B15 had a Kd of 0.174 nM.

For B16, the Kd was determined as 0.336 nM.

As to B17, the Kd came out at 0.312 nM.

The molecule B18 showed a Kd of 0.15 nM.

The record behind these values is patent US20220064275A1 (SCHOLAR ROCK, published 2022).
